Assay results published in paper PMC8717925 (Nature structural & molecular biology, 2020).

B1: ARPC2 subunit of S. pombe Arp2/3 complex (natural protein)
chain: MLSLDYNNIFIYELLTERFSSENPSSIDQVVTDFDGVTFHISTPEEKTKILISLSMKCYPELVNYGTLDLLKQIYGAYVHEPEMGYNFSILIDLQQLPATDEEKEQLAMSISMLKRNVLAAPFHRAFTKQAELADLARKDPENAPMLDKQATSQELMAIHYRDEETIVLWPEHDRVTVVFSTKFREETDRIFGKVFLQEFVDARRRPAIQTAPQVLFSYRDPPLEIRDIQGIQKGDDFGFVTFVLFERHFTPQNREDCISHIQVFRNTLHFHIKASKAYMHQRMRKRVADFQKVLNRAKPDVELERKTATGRSFVRA

Experiments:
[1] = target: T1, Dip1 (S. pombe WISH/DIP/SPIN90 family nucleation promoting factor) (S. pombe, UniProt O74771 1-374); experiment: cryo-EM structure
T1 sequence (looked up): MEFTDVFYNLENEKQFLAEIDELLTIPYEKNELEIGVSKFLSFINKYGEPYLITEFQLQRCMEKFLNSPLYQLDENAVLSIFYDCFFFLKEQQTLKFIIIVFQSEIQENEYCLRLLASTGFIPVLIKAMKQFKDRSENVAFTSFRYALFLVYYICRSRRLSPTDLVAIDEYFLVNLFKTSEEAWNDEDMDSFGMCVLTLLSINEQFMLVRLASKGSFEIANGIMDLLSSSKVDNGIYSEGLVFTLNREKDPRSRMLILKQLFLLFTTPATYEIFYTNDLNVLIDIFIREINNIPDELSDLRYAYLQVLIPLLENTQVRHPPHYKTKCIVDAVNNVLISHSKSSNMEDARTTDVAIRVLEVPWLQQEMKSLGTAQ

[2] = target: B1; experiment: cryo-EM structure

Binder: B1
- binding result [1]: binds

B2: ARPC4 subunit of S. pombe Arp2/3 complex (natural protein)
chain: not shown
- binding result [1]: binds
- binding result [2]: binds
